Laboratory results as given in article PMC12572175.

Tests used:
Protein A domain D [1] = test: BLI; details: chain shown with the change;; parent: 35.3 nM
Protein A domain D [2] = test: ELISA; details: chain shown with the change;; parent: 7.5 nM

Binder	Kd (Protein A domain D [1]) [µM]	EC50 (Protein A domain D [2]) [µM]
sdAb n501 R95A (protein) EVQLVESGGGLVQPGGSLRLSCAASDFTFRNYEMSWVRQAPGKGLEWVSSISGSGGSTYYAHSLKGRFTISRDNSKNTLYLQMNSLAAEDTAIYYCARLRDGFNNGFDYWGQGTLVTVSS	0.431	0.404
sdAb n501 N92A (protein) EVQLVESGGGLVQPGGSLRLSCAASDFTFRNYEMSWVRQAPGKGLEWVSSISGSGGSTYYAHSLKGRFTISRDNSKNTLYLQMASLRAEDTAIYYCARLRDGFNNGFDYWGQGTLVTVSS	–	0.151
sdAb n501 Y67A (protein) EVQLVESGGGLVQPGGSLRLSCAASDFTFRNYEMSWVRQAPGKGLEWVSSISGSGGSTYAAHSLKGRFTISRDNSKNTLYLQMNSLRAEDTAIYYCARLRDGFNNGFDYWGQGTLVTVSS	–	0.162
sdAb n501 S18A (protein) EVQLVESGGGLVQPGGALRLSCAASDFTFRNYEMSWVRQAPGKGLEWVSSISGSGGSTYYAHSLKGRFTISRDNSKNTLYLQMNSLRAEDTAIYYCARLRDGFNNGFDYWGQGTLVTVSS	0.136	0.709
sdAb n501 G16A (protein) EVQLVESGGGLVQPAGSLRLSCAASDFTFRNYEMSWVRQAPGKGLEWVSSISGSGGSTYYAHSLKGRFTISRDNSKNTLYLQMNSLRAEDTAIYYCARLRDGFNNGFDYWGQGTLVTVSS	0.0963	0.092
sdAb n501 T77A (protein) EVQLVESGGGLVQPGGSLRLSCAASDFTFRNYEMSWVRQAPGKGLEWVSSISGSGGSTYYAHSLKGRFAISRDNSKNTLYLQMNSLRAEDTAIYYCARLRDGFNNGFDYWGQGTLVTVSS	–	0.2
sdAb n501 K72A (protein) EVQLVESGGGLVQPGGSLRLSCAASDFTFRNYEMSWVRQAPGKGLEWVSSISGSGGSTYYAHSLAGRFTISRDNSKNTLYLQMNSLRAEDTAIYYCARLRDGFNNGFDYWGQGTLVTVSS	1.36	0.685
sdAb n501 S79A (protein) EVQLVESGGGLVQPGGSLRLSCAASDFTFRNYEMSWVRQAPGKGLEWVSSISGSGGSTYYAHSLKGRFTIARDNSKNTLYLQMNSLRAEDTAIYYCARLRDGFNNGFDYWGQGTLVTVSS	0.372	0.245
sdAb n501 T65A (protein) EVQLVESGGGLVQPGGSLRLSCAASDFTFRNYEMSWVRQAPGKGLEWVSSISGSGGSAYYAHSLKGRFTISRDNSKNTLYLQMNSLRAEDTAIYYCARLRDGFNNGFDYWGQGTLVTVSS	1.03	–
